The values that follow come from paper PMC8464078.

Test [1] concerns the target Xenopus Rif1–CTD S2058A (Xenopus). As to the kind of experiment: pull-down.
The target of test [2] is Xenopus Rif1–CTD S2058D (Xenopus). As to the kind of experiment: pull-down.

On to “protein phosphatase 1 (PP1), gamma catalytic subunit (from UniProt P36874 1-323) (enzyme)”, for which the results for the PP1 bound, percent of wild type Rif1–CTD in test [1] and in test [2] were 54% and 9%, respectively.
